The data set concerns T1, CagR (Streptomyces clavuligerus F613-1), ORF:155d736f.
T1 sequence: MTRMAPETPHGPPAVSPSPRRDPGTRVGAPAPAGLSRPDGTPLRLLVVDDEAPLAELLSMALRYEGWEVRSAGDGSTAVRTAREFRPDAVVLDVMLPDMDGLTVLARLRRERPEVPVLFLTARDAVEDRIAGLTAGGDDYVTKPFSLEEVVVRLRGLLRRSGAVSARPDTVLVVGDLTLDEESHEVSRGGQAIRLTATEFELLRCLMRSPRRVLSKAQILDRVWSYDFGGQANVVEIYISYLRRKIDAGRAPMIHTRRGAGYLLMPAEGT
Description: EMSA. Conditions: EMSA with 3.0 ug His-CagR and polydI/dC (1.0 mg as printed); buffer, pH and temperature not given (as in Zhang et al., 2015). In general terms: A gel shift assay detects complexes by their altered migration in electrophoresis.

For one sequence, binding results are on record in publication PMC6382702.

As for “CGACGCGCTCGGTCACAGGAATCTCCTTACGATGCATGCGGTGATGGAATAAGTATGCACTCGCCCGCATGTTTCGTCAATCATGGGTGCGCGATCGGTGCGTCCGACCGAAAGTGATCGGACGCTTACGCCATGGAGCGGCGCGCTGAACGCGTCGACGGAGGAATCCCCGGGGCCGTCGGACAGCGGCAGGGGTCTTCCGCACGGCGGCGGCCCGCCGCGGCATGCCGCAGGCCCCCGGCCGAGAGGGCCGGGGGCCTGCGGGGGTGGCGGCGCCGCGCCGGAGGGCCGGTCAGGCC (double strand) [argG upstream region (P2)]”, the binding result is reported as “binds”.
